Assays:
[1] = target: Arabidopsis thaliana dihydrodipicolinate synthase 2 (At-DHDPS2) (Arabidopsis thaliana) (UniProt Q9FVC8); assay: AUC; sedimentation velocity, c(s) analysis (SEDFIT); 20 mM Tris-HCl, 150 mM NaCl, pH 8.0, 20°C; At-DHDPS2 at 0.75 mg/mL, 50,000 rpm; At-DHDPR2 at 0.1-1.6 mg/mL, 40,000 rpm
[2] = target: Arabidopsis thaliana dihydrodipicolinate synthase 2 (At-DHDPS2) (Arabidopsis thaliana) (UniProt Q9FVC8); assay: SEC-MALS; Malvern P3000 column with Viscotek TDA (refractive index, low angle and right angle light scattering); 100 µL of 1.0 mg/mL; 20 mM Tris-HCl, 150 mM NaCl, pH 8.0; 28°C

Sequence of Arabidopsis thaliana dihydrodipicolinate synthase 2 (At-DHDPS2) (Q9FVC8 40-365): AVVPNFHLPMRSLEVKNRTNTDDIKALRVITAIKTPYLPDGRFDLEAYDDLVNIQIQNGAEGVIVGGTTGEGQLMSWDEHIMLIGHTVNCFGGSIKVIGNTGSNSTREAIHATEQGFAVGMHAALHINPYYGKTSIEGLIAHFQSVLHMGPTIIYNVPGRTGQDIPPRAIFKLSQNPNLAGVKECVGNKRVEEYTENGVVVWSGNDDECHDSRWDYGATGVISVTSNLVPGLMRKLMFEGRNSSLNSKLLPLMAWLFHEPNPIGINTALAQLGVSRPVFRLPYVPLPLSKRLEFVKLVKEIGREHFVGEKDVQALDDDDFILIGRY

Substance: Arabidopsis thaliana dihydrodipicolinate synthase 2 (At-DHDPS2) (from UniProt Q9FVC8 40-365) (enzyme)
- stoichiometry N [1]: 4
- stoichiometry N [2]: 4
